# Experimental data taken from publication PMC8211817.
# Substrate: N[C@@H](CC(=O)O)C(=O)O
# Assay: purified protein
# Conditions: 300 mM Na+ outside, pH 7, 10 mM potassium phosphate, valinomycin, 300 mM KCl in lumen, mixed membrane orientation, no sybody, labelled compound
protein,measurement,value
GltTk (Thermococcus kodakarensis KOD1) (protein) MGKSLLRRYLDYPVLWKILWGLVLGAVFGLIAGHFGYAGAVKTYIKPFGDLFVRLLKMLVMPIVLASLVVGAASISPARLGRVGVKIVVYYLATSAMAVFFGLIVGRLFNVGANVNLGSGTGKAIEAQPPSLVQTLLNIVPTNPFASLAKGEVLPVIFFAIILGIAITYLMNRNEERVRKSAETLLRVFDGLAEAMYLIVGGVMQYAPIGVFALIAYVMAEQGVRVVGPLAKVVGAVYTGLFLQIVITYFILLKVFGIDPIKFIRKAKDAMITAFVTRSSSGTLPVTMRVAEEEMGVDKGIFSFTLPLGATINMDGTALYQGVTVLFVANAIGHPLTLGQQLVVVLTAVLASIGTAGVPGAGAIMLAMVLQSVGLDLTPGSPVALAYAMILGIDAILDMGRTMVNVTGDLAGTVIVAKTEKELDESKWIS,Km,0.70 ± 0.22 µM
same,kcat,0.895 s⁻¹
